The data set deals with the molecule itself. Description: thioflavin T fluorescence of fibril formation; monomeric αS (50 μM in Fig. 5; 20–200 μM in Fig. 4) with 10 μM ThT, 96-well plates with Teflon polybeads, shaking at 500 rpm, 37 °C (other temperatures in Fig. 6), PBS.

Consider one protein from publication PMC10322983, “Intramolecular interaction kinetically regulates fibril formation by human and mouse α-synuclein” (Scientific Reports, 2023).

B1: m-αS Δ104–140 (domain or fragment)
chain: not shown
Take B1: the binding result is listed as “binds”.
